Experimental data from publication PMC12748588, “Cryo-EM structures of plant Augmin reveal coiled-coil assembly, antiparallel dimerization, and NEDD1 binding” (Nature Communications, 2025).

T1: AUG5 with C-terminal 8xHis tag (subunit of the hetero-octamer) (A. thaliana, UniProt Q9FMB4 1-796)
T1 construct: AUGMIN subunit 5 (AUG5), A. thaliana; subunit ORF in pET3a, assembled into the eight-subunit polycistronic vector; Subunit of m1; the assembly was captured on Ni-IDA by this chain; also called AUG5 (His); not shown: His8, C-terminal, kept
T1 sequence (looked up): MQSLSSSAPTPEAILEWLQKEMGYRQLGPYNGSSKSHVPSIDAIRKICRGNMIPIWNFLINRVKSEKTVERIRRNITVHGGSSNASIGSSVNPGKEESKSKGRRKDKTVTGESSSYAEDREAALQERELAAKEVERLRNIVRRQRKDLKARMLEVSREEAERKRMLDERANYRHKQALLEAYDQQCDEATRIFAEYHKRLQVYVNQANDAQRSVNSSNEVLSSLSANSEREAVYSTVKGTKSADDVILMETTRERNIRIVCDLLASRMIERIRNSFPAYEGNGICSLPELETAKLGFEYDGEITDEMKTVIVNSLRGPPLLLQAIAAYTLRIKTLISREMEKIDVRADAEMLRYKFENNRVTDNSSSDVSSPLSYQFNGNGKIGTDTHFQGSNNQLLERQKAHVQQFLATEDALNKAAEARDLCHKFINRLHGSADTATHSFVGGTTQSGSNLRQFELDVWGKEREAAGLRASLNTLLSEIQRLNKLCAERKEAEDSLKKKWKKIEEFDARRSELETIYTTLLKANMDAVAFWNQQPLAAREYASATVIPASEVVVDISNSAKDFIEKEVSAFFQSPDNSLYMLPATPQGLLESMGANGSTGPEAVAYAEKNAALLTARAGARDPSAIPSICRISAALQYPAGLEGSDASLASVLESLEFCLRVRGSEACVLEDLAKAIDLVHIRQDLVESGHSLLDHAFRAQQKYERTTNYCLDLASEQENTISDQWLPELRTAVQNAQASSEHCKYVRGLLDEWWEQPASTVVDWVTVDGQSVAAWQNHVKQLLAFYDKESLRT

T2: AUG5 with C-terminal GFP and His tags (subunit of the hetero-tetramer) (A. thaliana, UniProt Q9FMB4 1-796)
T2 construct: AUGMIN subunit 5 (AUG5), A. thaliana; subunit ORF in the four-subunit polycistronic vector; Subunit of m2; source: E. coli SoluBL21, co-expressed with AUG1, AUG3 and AUG4, purified as part of the assembly (Ni-IDA, Q-FF, Superdex 200); not shown: His tag, C-terminal, kept
T2 sequence (looked up): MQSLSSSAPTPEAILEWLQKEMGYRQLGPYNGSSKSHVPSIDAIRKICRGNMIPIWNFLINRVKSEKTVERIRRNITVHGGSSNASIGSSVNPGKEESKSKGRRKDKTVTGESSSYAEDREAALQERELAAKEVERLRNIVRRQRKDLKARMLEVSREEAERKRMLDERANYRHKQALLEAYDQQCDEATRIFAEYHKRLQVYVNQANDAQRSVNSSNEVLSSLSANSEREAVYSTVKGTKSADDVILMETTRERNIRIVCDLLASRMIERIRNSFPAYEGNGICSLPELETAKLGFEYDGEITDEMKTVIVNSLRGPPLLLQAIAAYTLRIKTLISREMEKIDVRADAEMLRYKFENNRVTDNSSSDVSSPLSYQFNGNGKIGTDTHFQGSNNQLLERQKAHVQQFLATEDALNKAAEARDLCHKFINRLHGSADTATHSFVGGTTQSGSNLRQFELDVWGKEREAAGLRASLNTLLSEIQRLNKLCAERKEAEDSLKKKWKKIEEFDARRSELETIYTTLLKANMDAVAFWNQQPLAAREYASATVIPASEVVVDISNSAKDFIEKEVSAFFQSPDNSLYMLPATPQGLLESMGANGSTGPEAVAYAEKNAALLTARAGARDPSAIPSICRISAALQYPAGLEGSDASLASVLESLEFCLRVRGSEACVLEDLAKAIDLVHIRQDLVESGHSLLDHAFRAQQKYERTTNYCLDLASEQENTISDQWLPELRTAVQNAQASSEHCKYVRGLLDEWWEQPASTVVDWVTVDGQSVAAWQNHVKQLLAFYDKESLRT

B1: AUG6 with C-terminal StrepII tag (natural protein, A. thaliana, UniProt Q94BP7 1-741, looked up)
chain: MTMDREKERELELESAMYTNCLLLGLDPNVIGLGASNGTPRVGLFRHSNPKLGEQLLYFILSSLRGPAQSSKDFDKVWPIFDSAQSRDFRKVVQAIISELESQGALPRSNSRVSSLATCCGPRFVELLWQLSLHALREVHRRTFPADVASNPLPSSLTDVSFSHAATLLPVTKARIVLERRRFLKNAETAVQRQAMWSNLAHEMTAEFRGLCAEEAYLQQELEKLNDLRNKVKQEGEVWDDLVSSSSQNSHLVSKATRLWDSIMARKGQHEVLASGPIEDLIAHREHRYRISGSALLAAMDQSSQVPRAELLSAHSDDSASLADDKELSDGSYTNMHDHSLVDSFETASSQASDETLSRVDDRGGKINQTVDVAEVIRRWTHALQRIHKQSLLLAKANDGDGPDILRTASDGGTSGHVESLAATLTEHQQHLASFQVLINQLKEVSPAIQKSISECTEMVNSLPPTLPPVTRSNGQASSLLQSQGSGRIMEGVSNDVAELTSTMSNVQLEKVSASPTLKLPQLFSSTPTSSGKGGNGQKRQTMASQVNKMESLSEKNSTDQALSNARPDNLPTDTSSSFVHNLKKSVREAALLIPSSAGSSRDSQSDEGSEHYFVPLSATGFSRFPSETKALPLRGSRALTSLSEPSFLEPNVPDSFAPSKYSDIPDTYDDLDSFKDYDNGNGFLSVAGSNSVASDAQQSFYDIDDQVFSPPLLMDSSLLSDAYEDLLAPLSETEAALMEH
notes: AUGMIN subunit 6 (AUG6), A. thaliana; ORF in pET3a, assembled into a polycistronic vector; N-terminal CH domain; its C-terminal region is prone to degradation; Subunit of m1; also called AUG6-StrepII; source: E. coli SoluBL21, co-expressed with the other Augmin subunits, purified as part of the assembly
B2: AUG7 (A. thaliana Augmin subunit 7) (natural protein, UniProt Q0WTP1 1-329, looked up)
chain: MAAKQMEEIQKKLRLLSYPRANAPAQSLLFAGMERYALLEWLFFKLLGDKSPFSQQNLQGDAGVRDEETVRIQYLAEIAKFLGITPTVDIEAIQGHGTYEDRMEMLRNIVDLVEASLFSDNQEWSIDEQVAKDIQLIDAIAERQSLIFSEECKLFPADVQIQSIYPLPDVSELETKLSEQAKILSNLQQKVDDLAAKHAYNPDEEYTEVESQLRARLESFLETARAFNTIYTKEIRPWTHMMEVPQLHGFGPAANRLLEAYNMLLKFLGNLKNLRDSHAALSIGSSGTVAGEPSSVTRIVSDCEAALTVLNRDLGILSASIAREQGERL
notes: AUGMIN subunit 7 (AUG7), A. thaliana; codon-optimised ORF in pET3a, assembled into a polycistronic vector; N-terminal CH domain; Subunit of m1; source: E. coli SoluBL21, co-expressed with the other Augmin subunits, purified as part of the assembly
B3: AUG4 (A. thaliana Augmin subunit 4) (natural protein, UniProt Q8GYM3 1-423, looked up)
chain: MVKALQGAAQNLPADVNQLIDQLERHCLAPDGSLVTKSVYSDLQLAREEMSRERLRYLEAMAIYCEAVAMVEEYQQAISVANHGGIRDVQGLYPQLGLKNSPQVYETLEHRLVVAEAAQKLRLPLISDGGEIHEEEIEKWSILSRSSLDSASTSFTISSTSNSVNYANSSANSVAGGISLSAVDTDVVGGVPNRFLGITPAYLSYVQLQNTISMDMADYQMFLAREIEGRLKEKCDKLADAIVDDTDSSTGNRNSSARLPERVKFIIEEIERDEAALREDLYSADRKFAEYYNVLEQILGVLIKLVKDLKLEHQHKYNEMQKTWLCKRCETMNAKLRVLENVLLLETYTPDSISALHNIRNYLVEATEEASAAYNKAVTRLREYQGVDPHFDTIARQYHDIVKKLENMQWTIHQVEMDLKSHD
notes: AUGMIN subunit 4 (AUG4), A. thaliana; subunit ORF in pET3a, assembled into polycistronic vectors; Subunit of m1 and m2; source: E. coli SoluBL21, co-expressed with the other Augmin subunits, purified as part of the assembly
B4: AUG1 (A. thaliana Augmin subunit 1) (natural protein, UniProt F4IK01 1-299, looked up)
chain: MSDVTGDLAAVSEAKGGSDAARISEVKAWLTSQFEAVGKEVPNFEYTHRSITHLYNLATASQAKSQAATIVANDFRLKASEYRAQAARIREILESAGMSQESLPSNVVSSAQVLANVANLLNIRDTELSSFLVAMGDISLRKTGVEEKRAKAQKESNALLDYTRKAIQRLTYLKKILAQLEDDVVPCESQMENWKTNLEVMAVKEEQYIQQYKKYEQMLLNRVGYTPKISHRELVEMAEHRKELDKMTKPVLDTLRSYQDLPPDKALAALAIEDKKRQFTAAEKYLEEVLQSALETNDE
notes: AUGMIN subunit 1 (AUG1), A. thaliana; subunit ORF in pET3a, assembled into polycistronic vectors; Subunit of m1 and m2; source: E. coli SoluBL21, co-expressed with the other Augmin subunits, purified as part of the assembly
B5: AUG2 (A. thaliana Augmin subunit 2) (natural protein, UniProt O48767 1-296, looked up)
chain: MSMGGDTTWVGKKPIRRIGGLSDALSIASDLGFAVAPPPSQEELQSFASSNGERGDDLIRVLRELSVVQRKIADLQVELQGRKDDKNVAHLTHVGEMQKKIETLSRITQILKDVIQNKDRIIARLQQPYSLDCIPVEAEYQKQFSELLMKAASDYGALTASVSDFQWSQNFKEPPSVWGEMLRPIPVALASCTRFFEAMSAMRESFATLQELRVGNSAVSLPTTPGGNEMTHRDSDCVTPPQGRIESSFDDLAVHKTRRQNNDQNEEEEEEEEEEDGNNNGNRRLSWPPSVKKSSV
notes: AUGMIN subunit 2 (AUG2), A. thaliana; codon-optimised ORF in pET3a, assembled into a polycistronic vector; Subunit of m1; source: E. coli SoluBL21, co-expressed with the other Augmin subunits, purified as part of the assembly
B6: AUG3 (A. thaliana Augmin subunit 3) (natural protein, UniProt Q0WQE7 1-617, looked up)
chain: MSSARLCSLVAELGYEGAGKLDPDSFEWPFQYDDARPILDWICSSLRPSNVLSLAELSLYEQFQRDGKLLEGDDLDQAYDSISAFSSRRNNQEAVFGAEESIKEVRDATLAHKAEALELQRQLRRLQTQYDLLTGQSSALIQGRRARVAATSAVSGQITAIEDSLSARNLQMNGVLGRLASTSQELAHYHSGEEDGIYLAYSDFHAYLAGDSACTKELNQWFAKQLDTGPYRLVAEEGKSKCSWVSLDDTSNMLRDLEKSQHQRVAELQRLRSIFGTSERQWIEAQVENAKQQAILLTLKSQVTSVEAHIHFDLHSLRRKHADLVEEISTLYQKEEKLLSETIPELCWELAQLQDTYILQGDYDLKVMRQELYISKQKVFINHLVNQLARHQFLKLACQLEKKNMLGAFSLLKVIESELQGYLSATRSRVGRCSALIQAASDVQEQGAVDDRDSFLHGVRDLLSIHSNTQAGLSTYVSAPAIIQQIVALQSDLSSLQSDLENSLPDDRNRCINELCTHIQNLQQLLFASSTTAQPILTPWPLMKELDEMGKINSKLSTAVEEVTLEHRNKREIVKHHAKDVELQRRVFVDFFCNPERLRNQVRELNALVRARQASSS
notes: AUGMIN subunit 3 (AUG3), A. thaliana; subunit ORF in pET3a, assembled into polycistronic vectors; Subunit of m1 and m2; source: E. coli SoluBL21, co-expressed with the other Augmin subunits, purified as part of the assembly

Tests used:
Assay in all cases: SEC-MALS + other: mass photometry; co-expressed assemblies purified by Ni-IDA (AUG5 His tag), Q-FF and gel filtration; subunits confirmed by SDS-PAGE and mass spectrometry; SEC-MALS on Superdex 200 Increase 10/300, 200 µL at 1 mg/mL, 50 mM HEPES pH 7.5, 200 mM KCl, 1 mM MgCl2, 1 mM EGTA
[1] = molecular target: AUG5 with C-terminal 8xHis tag (subunit of the hetero-octamer) (A. thaliana) (UniProt Q9FMB4)
[2] = molecular target: T1, AUG5 with C-terminal 8xHis tag (subunit …); conditions: both partners purified
[3] = molecular target: T2, AUG5 with C-terminal GFP and His tags …; conditions: both partners purified

| Molecule | stoichiometry N (subunit per assembly) [1] | stoichiometry N [2] | stoichiometry N [3] |
| --- | --- | --- | --- |
| AUG8 C-terminal region (residues 383-644) (from UniProt Q9SUH5 383-644) (domain or fragment) | 1 |  |  |
| B1 |  | 1 subunit per assembly |  |
| B2 |  | 1 subunit per assembly |  |
| B3 |  | 1 subunit per assembly | 1 subunit per assembly |
| B4 |  | 1 subunit per assembly | 1 subunit per assembly |
| B5 |  | 1 subunit per assembly |  |
| B6 |  | 1 subunit per assembly | 1 subunit per assembly |
